This assay has as its target full-length SUMO-CtBP2 (human) (UniProt P56545). The assay is described as follows: SEC; Superose 6 Increase 10/300 GL; 20 mM Tris-HCl pH 8.0, 150 mM NaCl, 2 mM DTT; 0.35 ml/min.

Broadly, the stoichiometry N is a count of units in the complex or per binding partner. In the case of “full-length SUMO-CtBP2, P56545 1-445 (natural protein; other documents disagree on this pair)”, the stoichiometry N was found to be 4.

These data come from PMC12809078.
